pEC50, pKd: −log10 of the molar value.
Columns and labels:
Aβ1-20 = assay: solution-based binding assay, free antibody by ELISA, GRAFIT fit
Aβ1-40 monomer [1] = assay: ELISA on coated antigen; antibody kept at 40° for 1 month
[2] = biological target: amyloid β-derived diffusible ligands (ADDLs), oligomers of Aβ1-42; assay: sandwich ELISA on ERENNA, 19.3 on beads as capture, labelled 7305 as detection; ADDLs 0.19 pM in standards diluent
[3] = biological target: amyloid β-derived diffusible ligands (ADDLs), oligomers of Aβ1-42; assay: sandwich ELISA on ERENNA, 19.3 on beads as capture, labelled 7305 as detection; ADDLs 1.67 pM in standards diluent
Aβ1-40 monomer [4] = assay: ELISA on coated antigen; antibody kept at 25° for 1 month
Aβ1-40 monomer [5] = assay: sandwich ELISA on ERENNA, 19.3 capture, 7305 detection
Aβ1-40 monomer [6] = assay: sandwich ELISA on ERENNA, 19.3 capture, 82E1 detection
Aβ1-40 monomer [7] = assay: ELISA on coated antigen; antibody kept at 4° for 1 month
[8] = biological target: amyloid β-derived diffusible ligands (ADDLs), oligomers of Aβ1-42; assay: sandwich ELISA on ERENNA, 19.3 on beads as capture, labelled 7305 as detection; ADDLs 5.00 pM in standards diluent
[9] = biological target: amyloid β-derived diffusible ligands (ADDLs), oligomers of Aβ1-42; assay: ELISA, IgG2
[10] = biological target: amyloid β-derived diffusible ligands (ADDLs), oligomers of Aβ1-42; assay: BIACORE (SPR)
Aβ1-40 monomer [11] = assay: BIACORE (SPR)
[12] = biological target: amyloid β-derived diffusible ligands (ADDLs), oligomers of Aβ1-42; assay: competitive ELISA (ratio of the two EC50)
[13] = biological target: amyloid β-derived diffusible ligands (ADDLs), oligomers of Aβ1-42; assay: one-sided ELISA, plate coated with Aβ oligomers 50 pmol/well (FIG. 5A)
[14] = biological target: amyloid β-derived diffusible ligands (ADDLs), oligomers of Aβ1-42; assay: sandwich ELISA on ERENNA, 19.3 on beads as capture, labelled 7305 as detection; ADDLs 0.56 pM in standards diluent
Aβ1-40 monomer [15] = assay: ELISA on coated antigen; antibody at 0 timepoint
[16] = biological target: amyloid β-derived diffusible ligands (ADDLs), oligomers of Aβ1-42; assay: KINEXA, equilibrium in solution
Aβ1-40 monomer [17] = assay: KINEXA, equilibrium in solution
Aβ1-40 monomer [18] = assay: one-sided ELISA, plate coated with Aβ1-40 100 pmol/well (FIG. 5A)

Chain of Aβ1-20 (peptide, as listed by the source): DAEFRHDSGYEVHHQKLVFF

pKd (Aβ1-20) | pEC50 (Aβ1-40 monomer [1]) | DE Mean (detected events mean) (detected events) [2] | DE Mean (detected events mean) (detected events) [3] | pEC50 (Aβ1-40 monomer [4]) | Aβ40 monomer Cross Reactivity (Aβ1-40 monomer [5]) [%] | Aβ40 monomer Cross Reactivity (Aβ1-40 monomer [6]) [%] | pEC50 (Aβ1-40 monomer [7]) | DE Mean (detected events mean) (detected events) [8] | pEC50 [9] | pKd [10] | pKd (Aβ1-40 monomer [11]) | affinity for Aβ1-42 oligomers compared to Aβ1-40 monomers [12] | pEC50 [13] | DE Mean (detected events mean) (detected events) [14] | pEC50 (Aβ1-40 monomer [15]) | pKd [16] | pKd (Aβ1-40 monomer [17]) | pEC50 (Aβ1-40 monomer [18]) | Substance
7.72 |  |  |  |  |  |  |  |  |  |  |  |  |  |  |  |  |  |  | WO-2 (antibody)
 | 7.05 | 324 | 1940 | 7.66 | 0.02 | 0.04 | 7.79 | 5580 | 9.10 | 8.32 | 6.82 | 630 | 8.80 | 691 | 8.00 | 8.57 | 7.78 | 8.37 | anti-ADDL antibody 19.3
